Experimental data from patent US20110118131A1 (published 2011).
Changes are numbered by the printed parent chain. Names and notes keep the numbering of the source.

Target: T1, IL-1β (UniProt P01584 117-269)
T1 construct: Antigen immobilised on the Biacore chip
Assay: Biacore, periplasmic extract

B1: XPA23 light chain S50R (Fab, V domains shown)
VH: EVQLLESGGGLVQPGGSLRLSCAASGFTFSKYFMFWVRQAPGKGLEWVSVISPSGGMTRYADSVKGRFTISRDNSKNTLYLQMNSLRAEDTAVYYCARVGYGGNSDYWGQGTLVTVSS
VL: DIQMTQSPSSVSASVGDRLTIICRASQDINRWLAWYQQTPGNAPKLLIHRATSLQSGVPSRFSGSGSGTDFTLTINSLQPEDFATYYCQQADSFPLTFGGGTKVEIK
binding result: no binding

B2: XPA23 light chain S50T (Fab, V domains shown)
VH: B1 VH
VL: B1 VL with R50T
fold difference in affinity vs original: 0.87 fold

B3: XPA23 light chain S50V (Fab, V domains shown)
VH: B1 VH
VL: B1 VL with R50V
fold difference in affinity vs original: 0.21 fold

B4: XPA23 light chain S50W (Fab, V domains shown)
VH: B1 VH
VL: B1 VL with R50W
fold difference in affinity vs original: 0.02 fold

B5: XPA23 light chain S50Y (Fab, V domains shown)
VH: B1 VH
VL: B1 VL with R50Y
fold difference in affinity vs original: 0.05 fold

B6: XPA23 light chain S53D (Fab, V domains shown)
VH: B1 VH
VL: B1 VL with R50S, S53D
binding result: no binding

B7: XPA23 light chain S53E (Fab, V domains shown)
VH: B1 VH
VL: B1 VL with R50S, S53E
fold difference in affinity vs original: 1.13 fold

B8: XPA23 light chain S53F (Fab, V domains shown)
VH: B1 VH
VL: B1 VL with R50S, S53F
fold difference in affinity vs original: 1.24 fold

B9: XPA23 light chain S53K (Fab, V domains shown)
VH: B1 VH
VL: B1 VL with R50S, S53K
fold difference in affinity vs original: 4.07 fold

B10: XPA23 light chain S53N (Fab, V domains shown)
VH: B1 VH
VL: B1 VL with R50S, S53N
fold difference in affinity vs original: 1.23 fold

B11: XPA23 light chain S53Q (Fab, V domains shown)
VH: B1 VH
VL: B1 VL with R50S, S53Q
fold difference in affinity vs original: 1.09 fold

B12: XPA23 light chain S53R (Fab, V domains shown)
VH: B1 VH
VL: B1 VL with R50S, S53R
fold difference in affinity vs original: 3.29 fold

B13: XPA23 light chain S53W (Fab, V domains shown)
VH: B1 VH
VL: B1 VL with R50S, S53W
fold difference in affinity vs original: 1.11 fold

B14: XPA23 light chain S53Y (Fab, V domains shown)
VH: B1 VH
VL: B1 VL with R50S, S53Y
fold difference in affinity vs original: 1.23 fold

B15: XPA23 light chain S93D (Fab, V domains shown)
VH: B1 VH
VL: B1 VL with R50S, S93D
fold difference in affinity vs original: 4.59 fold

B16: XPA23 light chain S93E (Fab, V domains shown)
VH: B1 VH
VL: B1 VL with R50S, S93E
fold difference in affinity vs original: 3.71 fold

B17: XPA23 light chain S93F (Fab, V domains shown)
VH: B1 VH
VL: B1 VL with R50S, S93F
fold difference in affinity vs original: 1.32 fold

B18: XPA23 light chain S93H (Fab, V domains shown)
VH: B1 VH
VL: B1 VL with R50S, S93H
fold difference in affinity vs original: 1.08 fold

B19: XPA23 light chain S93K (Fab, V domains shown)
VH: B1 VH
VL: B1 VL with R50S, S93K
fold difference in affinity vs original: 0.86 fold

B20: XPA23 light chain S93N (Fab, V domains shown)
VH: B1 VH
VL: B1 VL with R50S, S93N
fold difference in affinity vs original: 3.76 fold

B21: XPA23 light chain S93Q (Fab, V domains shown)
VH: B1 VH
VL: B1 VL with R50S, S93Q
fold difference in affinity vs original: 1.54 fold

B22: XPA23 light chain S93R (Fab, V domains shown)
VH: B1 VH
VL: B1 VL with R50S, S93R
fold difference in affinity vs original: 0.91 fold

B23: XPA23 light chain S93W (Fab, V domains shown)
VH: B1 VH
VL: B1 VL with R50S, S93W
fold difference in affinity vs original: 5.49 fold

B24: XPA23 light chain S93Y (Fab, V domains shown)
VH: B1 VH
VL: B1 VL with R50S, S93Y
fold difference in affinity vs original: 1.45 fold

B25: XPA23 light chain T52A (Fab, V domains shown)
VH: B1 VH
VL: B1 VL with R50S, T52A
fold difference in affinity vs original: 0.66 fold

B26: XPA23 light chain T52D (Fab, V domains shown)
VH: B1 VH
VL: B1 VL with R50S, T52D
fold difference in affinity vs original: 0.72 fold

B27: XPA23 light chain T52E (Fab, V domains shown)
VH: B1 VH
VL: B1 VL with R50S, T52E
fold difference in affinity vs original: 0.61 fold

B28: XPA23 light chain T52F (Fab, V domains shown)
VH: B1 VH
VL: B1 VL with R50S, T52F
fold difference in affinity vs original: 1.05 fold

B29: XPA23 light chain T52G (Fab, V domains shown)
VH: B1 VH
VL: B1 VL with R50S, T52G
binding result: no binding

B30: XPA23 light chain T52H (Fab, V domains shown)
VH: B1 VH
VL: B1 VL with R50S, T52H
fold difference in affinity vs original: 0.91 fold

B31: XPA23 light chain T52I (Fab, V domains shown)
VH: B1 VH
VL: B1 VL with R50S, T52I
fold difference in affinity vs original: 0.8 fold

B32: XPA23 light chain T52K (Fab, V domains shown)
VH: B1 VH
VL: B1 VL with R50S, T52K
fold difference in affinity vs original: 3.23 fold

B33: XPA23 light chain T52L (Fab, V domains shown)
VH: B1 VH
VL: B1 VL with R50S, T52L
fold difference in affinity vs original: 0.78 fold

B34: XPA23 light chain T52N (Fab, V domains shown)
VH: B1 VH
VL: B1 VL with R50S, T52N
fold difference in affinity vs original: 0.83 fold

B35: XPA23 light chain T52P (Fab, V domains shown)
VH: B1 VH
VL: B1 VL with R50S, T52P
fold difference in affinity vs original: 1.08 fold

B36: XPA23 light chain T52Q (Fab, V domains shown)
VH: B1 VH
VL: B1 VL with R50S, T52Q
fold difference in affinity vs original: 0.83 fold

B37: XPA23 light chain T52R (Fab, V domains shown)
VH: B1 VH
VL: B1 VL with R50S, T52R
fold difference in affinity vs original: 3.37 fold

B38: XPA23 light chain T52S (Fab, V domains shown)
VH: B1 VH
VL: B1 VL with R50S, T52S
fold difference in affinity vs original: 0.78 fold

B39: XPA23 light chain T52V (Fab, V domains shown)
VH: B1 VH
VL: B1 VL with R50S, T52V
fold difference in affinity vs original: 0.82 fold

B40: XPA23 light chain T52W (Fab, V domains shown)
VH: B1 VH
VL: B1 VL with R50S, T52W
fold difference in affinity vs original: 0.87 fold

B41: XPA23 light chain T52Y (Fab, V domains shown)
VH: B1 VH
VL: B1 VL with R50S, T52Y
fold difference in affinity vs original: 1.01 fold

B42: XPA23 light chain W32A (Fab, V domains shown)
VH: B1 VH
VL: B1 VL with W32A, R50S
binding result: no binding

B43: XPA23 light chain W32D (Fab, V domains shown)
VH: B1 VH
VL: B1 VL with W32D, R50S
binding result: no binding

B44: XPA23 light chain W32E (Fab, V domains shown)
VH: B1 VH
VL: B1 VL with W32E, R50S
binding result: no binding

B45: XPA23 light chain W32F (Fab, V domains shown)
VH: B1 VH
VL: B1 VL with W32F, R50S
binding result: no binding
